Experimental data published in patent publication US20230212319A1, “NOVEL ANTIGEN BINDING DOMAINS AND SYNTHETIC ANTIGEN RECEPTORS INCORPORATING THE SAME” (University of Southern California, priority 2020, published 2023).

B1: 22060 (protein)
chain: MALPVTALLLPLALLLHAARPQLQLQESGPGLVKPSETLSLTCTVSGDSISSGDYYWGWIRQPPGKGLEWIGHIYYSGVTYYNPSLKSRVTISVDTSRNQFSLKLSSVTAADTAVYYCTREDSSNWRSRGQGTLVTVSSLEGSGGGGSGGGGSGEDLKNVFPPEVAVFEPSEAEISHTQKATLVCLATGFYPDHVELSWWVNGKEVHSGVCTDPQPLKEQPALNDSRYCLSSRLRVSATFWQNPRNHFRCQVQFYGLSENDEWTQDRAKPVTQIVSAEAWGRADCGFTSESYQQGVLSATILYEILLGKATLYAVLVSALVLMAMVKRKDSRGRAKRSGSGATNFSLLKQAGDVEENPGPTSMDWIWRILFLVGAATGAHSFEVQLLESGGGLIQPGGSLRLSCAASGFTFSSHAMTWVRQAPGKGLEWVSAISGSGDYTHYADSVKGRFTISRDNSKNTVYLQMNSLRAEDSAVYYCAKDEDGGSLLGHRGQGTLVTVSSTRIQNPDPAVYQLRDSKSSDKSVCLFTDFDSQTNVSQSKDSDVYITDKCVLDMRSMDFKSNSAVAWSNKSDFACANAFNNSIIPEDTFFPSPESSCDVKLVEKSFETDTNLNFQNLSVIGFRILLLKVAGFNLLMTLRLWSSRAKRSGSGVKQTLNFDLLKLAGDVESNPGPSRGHMTEYKPTVRLATRDDVPRAVRTLAAAFADYPATRHTVDPDRHIERVTELQELFLTRVGLDIGKVWVADDGAAVAVWTTPESVEAGAVFAEIGPRMAELSGSRLAAQQQMEGLLAPHRPKEPAWFLATVGVSPDHQGKGLGSAVVLPGVEAAERAGVPAFLETSAPRNLPFYERLGFTVTADVEVPEGPRTWCMTRKPGA
B2: 22066 (protein)
chain: MALPVTALLLPLALLLHAARPQLQLQESGPGLVKPSETLSLTCTVSGDSISSGDYYWGWIRQPPGKGLEWIGHIYYSGVTYYNPSLKSRVTISVDTSRNQFSLKLSSVTAADTAVYYCTREDSSNWRSRGQGTLVTVSSLEVAALEREDLKNVFPPEVAVFEPSEAEISHTQKATLVCLATGFYPDHVELSWWVNGKEVHSGVCTDPQPLKEQPALNDSRYCLSSRLRVSATFWQNPRNHFRCQVQFYGLSENDEWTQDRAKPVTQIVSAEAWGRADCGFTSESYQQGVLSATILYEILLGKATLYAVLVSALVLMAMVKRKDSRGRAKRSGSGATNFSLLKQAGDVEENPGPTSMDWIWRILFLVGAATGAHSFEVQLLESGGGLIQPGGSLRLSCAASGFTFSSHAMTWVRQAPGKGLEWVSAISGSGDYTHYADSVKGRFTISRDNSKNTVYLQMNSLRAEDSAVYYCAKDEDGGSLLGHRGQGTLVTVSSTRIQNPDPAVYQLRDSKSSDKSVCLFTDFDSQTNVSQSKDSDVYITDKCVLDMRSMDFKSNSAVAWSNKSDFACANAFNNSIIPEDTFFPSPESSCDVKLVEKSFETDTNLNFQNLSVIGFRILLLKVAGFNLLMTLRLWSSRAKRSGSGVKQTLNFDLLKLAGDVESNPGPSRGHMTEYKPTVRLATRDDVPRAVRTLAAAFADYPATRHTVDPDRHIERVTELQELFLTRVGLDIGKVWVADDGAAVAVWTTPESVEAGAVFAEIGPRMAELSGSRLAAQQQMEGLLAPHRPKEPAWFLATVGVSPDHQGKGLGSAVVLPGVEAAERAGVPAFLETSAPRNLPFYERLGFTVTADVEVPEGPRTWCMTRKPGA
B3: 22067 (protein)
chain: MALPVTALLLPLALLLHAARPQLQLQESGPGLVKPSETLSLTCTVSGDSISSGDYYWGWIRQPPGKGLEWIGHIYYSGVTYYNPSLKSRVTISVDTSRNQFSLKLSSVTAADTAVYYCTREDSSNWRSRGQGTLVTVSSLEAAAKEDLKNVFPPEVAVFEPSEAEISHTQKATLVCLATGFYPDHVELSWWVNGKEVHSGVCTDPQPLKEQPALNDSRYCLSSRLRVSATFWQNPRNHFRCQVQFYGLSENDEWTQDRAKPVTQIVSAEAWGRADCGFTSESYQQGVLSATILYEILLGKATLYAVLVSALVLMAMVKRKDSRGRAKRSGSGATNFSLLKQAGDVEENPGPTSMDWIWRILFLVGAATGAHSFEVQLLESGGGLIQPGGSLRLSCAASGFTFSSHAMTWVRQAPGKGLEWVSAISGSGDYTHYADSVKGRFTISRDNSKNTVYLQMNSLRAEDSAVYYCAKDEDGGSLLGHRGQGTLVTVSSTRIQNPDPAVYQLRDSKSSDKSVCLFTDFDSQTNVSQSKDSDVYITDKCVLDMRSMDFKSNSAVAWSNKSDFACANAFNNSIIPEDTFFPSPESSCDVKLVEKSFETDTNLNFQNLSVIGFRILLLKVAGFNLLMTLRLWSSRAKRSGSGVKQTLNFDLLKLAGDVESNPGPSRGHMTEYKPTVRLATRDDVPRAVRTLAAAFADYPATRHTVDPDRHIERVTELQELFLTRVGLDIGKVWVADDGAAVAVWTTPESVEAGAVFAEIGPRMAELSGSRLAAQQQMEGLLAPHRPKEPAWFLATVGVSPDHQGKGLGSAVVLPGVEAAERAGVPAFLETSAPRNLPFYERLGFTVTADVEVPEGPRTWCMTRKPGA
B4: 22072 (protein)
chain: MALPVTALLLPLALLLHAARPQLQLQESGPGLVKPSETLSLTCTVSGDSISSGDYYWGWIRQPPGKGLEWIGHIYYSGVTYYNPSLKSRVTISVDTSRNQFSLKLSSVTAADTAVYYCTREDSSNWRSRGQGTLVTVSSLEGQPKANPTVTLFPPSSEELQANKATLVCLISDFYPGAVTVAWKADGSPVKAGVETTKPSKQSNNKYAASSYLSLTPEQWKSHRSYSCQVTHEGSTVEKTVAPTECSPIKTDVITMDPKDNCSKDANDTLLLQLTNTSAYYMYLLLLLKSVVYFAIITCCLLRRTAFCCNGEKSRAKRSGSGATNFSLLKQAGDVEENPGPTSMDWIWRILFLVGAATGAHSFEVQLLESGGGLIQPGGSLRLSCAASGFTFSSHAMTWVRQAPGKGLEWVSAISGSGDYTHYADSVKGRFTISRDNSKNTVYLQMNSLRAEDSAVYYCAKDEDGGSLLGHRGQGTLVTVSSTRIQNPDPAVYQLRDSKSSDKSVCLFTDFDSQTNVSQSKDSDVYITDKCVLDMRSMDFKSNSAVAWSNKSDFACANAFNNSIIPEDTFFPSPESSCDVKLVEKSFETDTNLNFQNLSVIGFRILLLKVAGFNLLMTLRLWSSRAKRSGSGVKQTLNFDLLKLAGDVESNPGPSRGHMTEYKPTVRLATRDDVPRAVRTLAAAFADYPATRHTVDPDRHIERVTELQELFLTRVGLDIGKVWVADDGAAVAVWTTPESVEAGAVFAEIGPRMAELSGSRLAAQQQMEGLLAPHRPKEPAWFLATVGVSPDHQGKGLGSAVVLPGVEAAERAGVPAFLETSAPRNLPFYERLGFTVTADVEVPEGPRTWCMTRKPGA
B5: 22154 (protein)
chain: MALPVTALLLPLALLLHAARPACEVQLLESGGGLIQPGGSLRLSCAASGFTFSSHAMTWVRQAPGKGLEWVSAISGSGDYTHYADSVKGRFTISRDNSKNTVYLQMNSLRAEDSAVYYCAKDEDGGSLLGHRGQGTLVTVSSGTGGGGSGGGGSGGGGSEFSYVLTQPPSVSVAPGQTARITCGGNNIGGKSVHWYQQPPGQAPVVVVYDDSDRPSGIPERFSGSNSGNTATLTISRVEAGDEAVYYCQVWDSSSDHVVFGGGTKLTVLLEGQPKANPTVTLFPPSSEELQANKATLVCLISDFYPGAVTVAWKADGSPVKAGVETTKPSKQSNNKYAASSYLSLTPEQWKSHRSYSCQVTHEGSTVEKTVAPTECSGRADCGFTSESYQQGVLSATILYEILLGKATLYAVLVSALVLMAMVKRKDSRGRAKRSGSGATNFSLLKQAGDVEENPGPTSATMDWIWRILFLVGAATGAHSGPQVQLQESGGGLAQAGGSLRLSCAASGRTFSMGWFRQAPGKEREFVAAITYSGGSPYYASSVRGRFTISRDNAKNTVYLQMNSLKPEDTAVYYCAANPTYGSDWNAENWGQGTQVTVSSGSGGGGSGGGGSGGGGSFEQLQLQESGPGLVKPSETLSLTCTVSGGSISSSSYFWGWIRQPPGKGLEWIGSIYYSGITYYNPSLKSRVTISVDTSKNQFSLKLSSVTAADTAVYYCARHDGAVAGLFDYWGQGTLVTVSSATRASTKGPSVFPLAPSSKSTSGGTAALGCLVKDYFPEPVTVSWNSGALTSGVHTFPAVLQSSGLYSLSSVVTVPSSSLGTQTYICNVNHKPSNTKVDKRVEPKSCIPEDTFFPSPESSCDVKLVEKSFETDTNLNFQNLSVIGFRILLLKVAGFNLLMTLRLWSSRAKRSGSGVKQTLNFDLLKLAGDVESNPGPSRGHMTEYKPTVRLATRDDVPRAVRTLAAAFADYPATRHTVDPDRHIERVTELQELFLTRVGLDIGKVWVADDGAAVAVWTTPESVEAGAVFAEIGPRMAELSGSRLAAQQQMEGLLAPHRPKEPAWFLATVGVSPDHQGKGLGSAVVLPGVEAAERAGVPAFLETSAPRNLPFYERLGFTVTADVEVPEGPRTWCMTRKPGA

The molecules below were run on RAJI cells (assay: JNG assay, co-culture with RAJI cells). Settings: JNG cells expressing construct, co-culture with Raji.
Assay type: cell-based
Outline: (§1)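 Read-out is NFAT-driven GFP measured by flow cytometry after ~4–18 h co-culture of SAR-expressing JNG cells with target cells (E:T about 1:2). SARs were introduced by lentiviral spinfection and selected with puromycin or blasticidin when possible; scores (+/- to 5+ ≈ 5–50% GFP+) are relative to parental JNG cells.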

Molecule | NFAT-GFP ASSAY: Raji
B1 | 2+ (refer to approximately 5%, 10%, 20%, 30%, 40% and 50% GFP positive cells)
B2 | +/- (refer to approximately 5%, 10%, 20%, 30%, 40% and 50% GFP positive cells)
B3 | +/- (refer to approximately 5%, 10%, 20%, 30%, 40% and 50% GFP positive cells)
B4 | + (refer to approximately 5%, 10%, 20%, 30%, 40% and 50% GFP positive cells)
B5 | 4+ (refer to approximately 5%, 10%, 20%, 30%, 40% and 50% GFP positive cells)

Each molecule was assayed on L363 cells (assay: JNG assay, co-culture with L363 cells). Settings: co-culture with L363.
Assay type: cell-based
Outline: as §1

Molecule | NFAT-GFP ASSAY: L363
B1 | 2+ (refer to approximately 5%, 10%, 20%, 30%, 40% and 50% GFP positive cells)
B2 | +/- (refer to approximately 5%, 10%, 20%, 30%, 40% and 50% GFP positive cells)
B3 | + (refer to approximately 5%, 10%, 20%, 30%, 40% and 50% GFP positive cells)
B4 | + (refer to approximately 5%, 10%, 20%, 30%, 40% and 50% GFP positive cells)
B5 | 2+ (refer to approximately 5%, 10%, 20%, 30%, 40% and 50% GFP positive cells)

The molecules below were run on Nalm6 cells (assay: JNG assay, co-culture with Nalm6 cells). Settings: co-culture with Nalm6.
Assay type: cell-based
Outline: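 Read-out is % GFP-positive cells by flow cytometry after ~4–18 h co-culture (E:T ≈1:2) of target lines with SAR-transduced, puromycin/blasticidin-selected JNG cells. Grades +/-, +, 2+…5+ correspond to approximately 5%, 10%, 20%, 30%, 40%, 50% GFP+ over parental JNG controls.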

Molecule | NFAT-GFP ASSAY: Nalm6
B1 | +/- (refer to approximately 5%, 10%, 20%, 30%, 40% and 50% GFP positive cells)
B2 | +/- (refer to approximately 5%, 10%, 20%, 30%, 40% and 50% GFP positive cells)
B3 | +/- (refer to approximately 5%, 10%, 20%, 30%, 40% and 50% GFP positive cells)
B4 | +/- (refer to approximately 5%, 10%, 20%, 30%, 40% and 50% GFP positive cells)
B5 | + (refer to approximately 5%, 10%, 20%, 30%, 40% and 50% GFP positive cells)
